This passage reports Kd results from article PMC3431625 (The Journal of Biological Chemistry, 2012).

The target of one experiment is Collagen type I (UniProt P02453;P02465). The experiment can be described thus: ELISA.
Experiment [1] addresses Mouse laminin isolated from Engelbreth-Holm-Swarm mouse sarcoma (mouse, UniProt P19137;P02469;P02468). As to the kind of experiment: ELISA. A general note: ELISA stands for enzyme-linked immunosorbent assay.

Broadly, the Kd is a measure of binding affinity in units of concentration. Low readings indicate tighter binding, high ones weaker binding.

Chain of Collagen type I (P02453 162-1217, chain 1 of 2): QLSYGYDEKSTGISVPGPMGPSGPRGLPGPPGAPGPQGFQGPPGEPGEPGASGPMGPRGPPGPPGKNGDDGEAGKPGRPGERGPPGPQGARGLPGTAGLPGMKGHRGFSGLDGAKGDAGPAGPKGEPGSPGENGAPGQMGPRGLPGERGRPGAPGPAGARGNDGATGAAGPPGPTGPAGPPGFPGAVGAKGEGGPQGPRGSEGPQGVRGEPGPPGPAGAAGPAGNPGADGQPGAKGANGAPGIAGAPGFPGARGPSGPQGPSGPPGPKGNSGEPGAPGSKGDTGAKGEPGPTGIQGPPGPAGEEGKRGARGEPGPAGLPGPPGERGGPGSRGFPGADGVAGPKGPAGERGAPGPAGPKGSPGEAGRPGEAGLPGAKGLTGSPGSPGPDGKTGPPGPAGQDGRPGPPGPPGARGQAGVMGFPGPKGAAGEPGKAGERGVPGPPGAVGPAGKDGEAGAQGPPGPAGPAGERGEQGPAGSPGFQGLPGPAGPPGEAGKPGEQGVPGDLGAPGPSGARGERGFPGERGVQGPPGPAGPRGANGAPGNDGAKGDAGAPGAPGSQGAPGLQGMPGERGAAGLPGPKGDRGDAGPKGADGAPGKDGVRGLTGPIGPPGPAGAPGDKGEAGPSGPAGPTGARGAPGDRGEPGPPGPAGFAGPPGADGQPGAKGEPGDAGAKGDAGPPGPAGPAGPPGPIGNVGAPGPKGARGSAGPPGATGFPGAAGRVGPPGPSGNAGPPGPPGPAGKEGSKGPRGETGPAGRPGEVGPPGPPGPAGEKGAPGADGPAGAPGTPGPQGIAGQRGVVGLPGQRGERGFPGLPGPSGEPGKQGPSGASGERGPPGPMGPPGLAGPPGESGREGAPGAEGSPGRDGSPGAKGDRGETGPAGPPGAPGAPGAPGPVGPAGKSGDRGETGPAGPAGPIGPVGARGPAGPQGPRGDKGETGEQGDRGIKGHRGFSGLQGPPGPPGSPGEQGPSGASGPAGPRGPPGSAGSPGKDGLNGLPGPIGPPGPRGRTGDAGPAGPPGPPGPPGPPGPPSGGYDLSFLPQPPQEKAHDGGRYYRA
Chain of Collagen type I (P02465 80-1117, chain 2 of 2): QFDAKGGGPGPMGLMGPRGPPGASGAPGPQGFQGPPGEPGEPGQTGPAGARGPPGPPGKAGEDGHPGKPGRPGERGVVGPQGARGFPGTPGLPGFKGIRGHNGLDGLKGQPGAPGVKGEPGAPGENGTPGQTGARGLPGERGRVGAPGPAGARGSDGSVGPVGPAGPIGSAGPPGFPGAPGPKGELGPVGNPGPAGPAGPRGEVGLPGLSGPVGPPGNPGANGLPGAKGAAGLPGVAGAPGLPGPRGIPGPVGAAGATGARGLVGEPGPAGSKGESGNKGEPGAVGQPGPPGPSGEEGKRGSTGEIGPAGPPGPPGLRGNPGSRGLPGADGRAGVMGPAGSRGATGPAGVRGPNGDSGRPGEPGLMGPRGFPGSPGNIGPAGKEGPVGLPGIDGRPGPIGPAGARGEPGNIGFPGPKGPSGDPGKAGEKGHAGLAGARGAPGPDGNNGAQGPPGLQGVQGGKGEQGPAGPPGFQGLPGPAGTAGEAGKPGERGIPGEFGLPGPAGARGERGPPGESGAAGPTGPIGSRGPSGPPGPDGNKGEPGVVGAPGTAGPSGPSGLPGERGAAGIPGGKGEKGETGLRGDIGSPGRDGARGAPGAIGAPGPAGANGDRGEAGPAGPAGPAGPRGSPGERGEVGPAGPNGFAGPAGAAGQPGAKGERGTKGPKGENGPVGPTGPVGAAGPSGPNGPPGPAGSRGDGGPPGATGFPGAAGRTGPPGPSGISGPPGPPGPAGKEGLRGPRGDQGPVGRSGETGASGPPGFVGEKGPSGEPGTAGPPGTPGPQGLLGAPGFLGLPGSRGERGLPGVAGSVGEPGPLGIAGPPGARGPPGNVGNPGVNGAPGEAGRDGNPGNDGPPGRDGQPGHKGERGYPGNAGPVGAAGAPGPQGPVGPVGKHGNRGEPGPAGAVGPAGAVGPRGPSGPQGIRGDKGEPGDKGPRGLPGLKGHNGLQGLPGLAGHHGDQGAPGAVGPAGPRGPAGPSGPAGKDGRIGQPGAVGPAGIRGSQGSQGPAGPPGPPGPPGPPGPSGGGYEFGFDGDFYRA

B1: Recombinant bovine opticin (natural protein)
chain: ASLSEEREGDPYAILHLGDYVLSLDNYDEVIDPSNYDELIDYGDQLPQVKGTSLASLTRTRFTQSTEAARTLPSNPTTARPPTLGLLAAPANHGLPTCLICVCLGSSVYCDDADLENIPPLPQTTAYLYARFNRISHIRAGDFKGLTKLKRIDLSGNSISSIDDKALRLLPALRDLILPENKLVALPTLPTSIEVLDVRMNRLQSSGIQPEAFRALEKLQFLYLADNLLDAIPPSLPLSLRSLHLQNNMIETMQRDAFCDAEEHRHTRRPLEDIRLDGNPINLSLFPSAYFCLPRLPTGRFV
B1: the Kd in the experiment with Collagen type I came to 60 nM; in experiment [1] it was 40 nM.
